B1: library; numbered along this chain (parent)
chain: MATDAALRRLLRLHRTEIAVAVDSAFPLLHALADHDVVPEDKFQETLHLKEKEGCPQAFHALLSWLLTQDSTAILDFWRVLFKDYNLERYGRLQPILDSFPKDVDLSQPRKGRKPPAVPKALVPPPRLPTKRKASEEARAAAPAALTPRGTASPGSQLKAKPPKKPESSAEQQRLPLGNGIQTMSASVQRAVAMSSGDVPGARGAVEGILIQQVFESGGSKKCIQVGGEFYTPSKFEDSGSGKNKARSSSGPKPLVRAKGAQGAAPGGGEARLGQQGSVPAPLALPSDPQLHQKNEDECAVCRDGGELICCDGCPRAFHLACLSPPLREIPSGTWRCSSCLQATVQEVQPRAEEPRPQEPPVETPLPPGLRSAGEEVRGPPGEPLAGMDTTLVYKHLPAPPSAAPLPGLDSSALHPLLCVGPEGQQNLAPGARCGVCGDGTDVLRCTHCAAAFHWRCHFPAGTSRPGTGLRCRSCSGDVTPAPVEGVLAPSPARLAPGPAKDDTASHEPALHRDDLESLLSEHTFDGILQWAIQSMARPAAPFPS

Variants of: B1
Assay: AIRE transcriptional activation functional score (insulin promoter-GFP; nonsense median 0, synonymous median 1) (normalised score); higher = higher AIRE activity (more reporter activation)
Settings: with insulin promoter-GFP reporter in HEK293
Method in brief: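 Functional scores come from comparing select with non-select enrichment of each variant and subtracting wild type. Codon-optimized AIRE NNN-codon libraries across three regions were integrated via Bxb1 recombinase into HEK293 landing-pad cells with an insulin core promoter-GFP reporter, and integrants sorted at day 7 were expanded 7 days before top 10% GFP and unselected populations were tile-sequenced. Variants needed 10 counts per million in non-select, and values were rescaled to nonsense median 0 and synonymous median 1 before averaging over biological replicates.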

AIRE transcriptional activation functional score, by site and new letter:
L511: C 0.201; R 0.813; F 0.864; W 1.02; G 0.805; A 0.757; P 0.736; K -0.311; V 0.838; Q 0.142; Y 1.19; T 0.121; S 0.682; H 0.98; I 0.739; M 0.699
P509: C 0.247; R 0.805; S 1.16; V 1.14; I 1.21; T 0.871; K 0.522; W 0.591; Q 1.12; L 0.827; H 0.506; F 1.17; Y 1.11; N 0.827; G 1.11; A 0.736; E 1.16; M 1.65
L516: D 0.758; P 0.365; W 0.496; C 0.678; S 0.564; E -0.232; G 0.562; R 0.262; V 0.832; Q 0.292; A 0.556; F 1.48; Y 1.01; K 0.259; I 0.97; N 0.207; T 0.362; H 0.715
D526: F 0.421; S -0.0693; W -0.427; Y 1.02; N 0.21; V -0.011; C -0.576; E 0.925; T -0.207; L -0.764; G 0.346; K 0.177; P -0.403; A 0.225; I 0.298; R -0.505
T524: L -0.065; W 0.629; Y 1.4; F 0.0783; R 0.214; S 1.61; M -0.346; C 1.47; P 0.528; A 0.636; H -0.0688; G 0.619; Q 0.0994; K 0.256; I 0.0345; V 0.353
F525: D 0.0868; G 0.0436; S -0.595; E -1.43; T -0.259; N -0.231; V 0.609; A 0.406; Q -0.479; I 0.367; P 0.141; Y 0.369; R -0.845; L 0.45; C 0.0978; H -0.0452
E517: L 0.0571; I 0.0464; S -0.144; A -0.0659; V 0.207; Y 0.524; Q 0.0484; R 0.985; G 0.693; K -0.0484; H 0.164; D 1.25
I528: L 0.543; D 0.302; Y 0.65; W 1; A 0.0102; M 0.456; R 0.161; V 0.759; T 0.117; N 0.204; C 0.179; K -0.0103; S -0.0342; E 0.137; F 0.795; Q 0.209; P 0.0858; G 0.149; H -0.237
H523: C -0.042; T 1.37; I 0.286; Y 1.33; N 1.28; L 0.222; K 0.199; V 0.847; R -0.128; D 0.678; G 1.65; S 1.25; F 0.43; Q 0.954; W -0.242
R513: S 0.587; F 1.18; H 0.0273; M 1.01; T 1.17; E -0.344; G -0.188; Y 1.28; I 1.44; C 0.777; N 0.0982; W 0.733; V 0.873; P 0.55; L 0.882; D 0.928; K 0.902
L519: C 0.313; G 0.259; Y 1.11; S 0.255; N -0.347; R 0.267; Q 0.698; T 0.239; P 0.517; I 0.439; W 0.904; M 0.992; F 0.808; D 0.255; V 0.315; A 0.739; H -0.138; E 0.874
S518: G 0.666; T 1.51; Y 1.3; C 0.672; W 0.848; H 0.981; L 1.04; I 0.907; K 1.27; N 0.216; A 0.775; Q 1.77; V 1.12; R 0.342; F 1.2; P 0.384
H512: I 1.1; A 0.977; W 1.06; C -0.3; R 0.445; K 0.572; Y 0.777; G 0.716; Q 0.273; P 1.09; M 0.439; L 0.941; F 1.21; N 1.02; T 0.649; V 1.35; D 0.939; S 0.923
L520: V 0.478; Q 0.36; A 0.276; K 0.452; H 0.344; S -0.11; D 0.849; I 1.23; P -0.00959; C 0.467; E 0.103; F 0.794; T 0.23; R 0.181; G 0.375
E508: V 0.577; T 0.822; Q 1.03; Y 0.92; W 0.888; S 0.0376; P 0.813; R 0.154
D515: N 0.626; A -0.0405; H 0.453; Q 0.723; W -0.15; L -0.215; I 0.101; Y 0.405; E 1.18; G 0.421; F 0.156; S 0.474; P 0.67; M -0.0216; K -0.501; T 0.0981; C 0.503; V 0.106; R -0.0862
G527: N 0.999; I 1.02; R 0.305; A 0.391; C 0.656; V 0.0961; F -0.224; H 0.494; W 0.875; M 0.725; S 0.639; K 0.173; L 0.0948
D514: L 0.0834; K -0.0487; F 0.299; G 0.3; R 0.191; T 0.26; S 0.341; W -0.252; I -0.186; M 0.515; H 0.52; V 0.335; Y 0.351; P -0.178; A 0.214; Q -0.128; C 0.246; E 0.931; N 0.242
E522: W -1.23; Q 1.03; R -0.0906; F 0.252; I 0.133; S 0.0236; L -0.299; G 0.352; A -0.0825; T -0.656; C 0.0951; V 0.236; D 0.925; K 0.503
S521: L 0.969; W 0.299; A 0.824; C 0.241; G 0.548; F 0.695; T 1.08; R 0.245; M 0.76; I 0.551; N 0.923; Q 0.377; K -0.211; V 0.258
A510: W 0.663; V 1.09; Y 0.861; F 0.578; G 0.977; M 1.37; S 0.921; I -0.237; R 0.323; C 1.24; P 1.35; E 1.33; K 0.165; T 0.933; L 1.04; Q 0.851; H 0.605
